T1: iASPP (249-482)-GST (human, UniProt Q8WUF5 249-482)
T1 construct: not shown: GST tag from pGEX vector
T1 sequence: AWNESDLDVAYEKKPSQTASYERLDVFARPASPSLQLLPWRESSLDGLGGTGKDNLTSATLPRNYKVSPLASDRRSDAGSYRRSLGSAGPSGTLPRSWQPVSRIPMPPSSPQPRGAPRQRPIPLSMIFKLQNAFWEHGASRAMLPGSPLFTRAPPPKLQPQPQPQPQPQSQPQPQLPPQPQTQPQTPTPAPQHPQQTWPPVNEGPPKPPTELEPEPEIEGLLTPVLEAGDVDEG

T2: iASPP (1-240)-GST (human, UniProt Q8WUF5 1-240)
T2 construct: Expressed in bacteria, purified on glutathione beads; also called N-terminal iASPP; not shown: GST tag from pGEX vector (BamHI/EcoRI cloning)
T2 sequence: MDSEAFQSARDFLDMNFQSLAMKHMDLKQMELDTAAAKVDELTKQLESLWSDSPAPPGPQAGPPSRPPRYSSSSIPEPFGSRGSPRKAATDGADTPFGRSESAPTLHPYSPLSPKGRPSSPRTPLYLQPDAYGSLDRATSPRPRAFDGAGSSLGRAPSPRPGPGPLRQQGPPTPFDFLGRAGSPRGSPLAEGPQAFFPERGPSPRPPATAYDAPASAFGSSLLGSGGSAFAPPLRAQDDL

B1: iASPP (625-828)-His (other)
chain: LNPLVLLLDAALTGELEVVQQAVKEMNDPSQPNEEGITALHNAICGANYSIVDFLITAGANVNSPDSHGWTPLHCAASCNDTVICMALVQHGAAIFATTLSDGATAFEKCDPYREGYADCATYLADVEQSMGLMNSGAVYALWDYSAEFGDELSFREGESVTVLRRDGPEETDWWWAALHGQEGYVPRNYFGLFPRVKPQRSKVHHHHHH
notes: Contains the ankyrin repeats and SH3 domain; FITC-labelled in the nuclear import assay; also called C-terminal iASPP

Key:
[1] = target: p53, transfected (co-transfected in H1299 cells; transfected in Saos-2 cells) (UniProt P04637 1-393); experiment: cell-based or functional assay
Chain of p53, transfected (co-transfected in H1299 cells; transfected in Saos-2 cells) (P04637 whole entry): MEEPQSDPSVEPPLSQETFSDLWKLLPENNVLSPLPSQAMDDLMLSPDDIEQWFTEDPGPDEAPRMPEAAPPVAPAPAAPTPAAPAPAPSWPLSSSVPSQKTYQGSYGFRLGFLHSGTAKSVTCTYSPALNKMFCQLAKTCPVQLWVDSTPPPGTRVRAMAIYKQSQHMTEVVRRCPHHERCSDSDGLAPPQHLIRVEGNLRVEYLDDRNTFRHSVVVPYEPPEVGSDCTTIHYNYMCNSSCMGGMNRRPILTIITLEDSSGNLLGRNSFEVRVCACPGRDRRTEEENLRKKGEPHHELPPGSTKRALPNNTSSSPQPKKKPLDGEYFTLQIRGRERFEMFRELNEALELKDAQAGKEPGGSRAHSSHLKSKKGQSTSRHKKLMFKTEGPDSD

iASPP (249-482)-GST = target: T1, iASPP (249-482)-GST; experiment: glutathione bead pull-down of purified proteins, anti-His blot
iASPP (1-240)-GST [2] = target: T2, iASPP (1-240)-GST; experiment: as above
iASPP (625-828)-His = target: B1; experiment: as above
iASPP (1-240)-GST [3] = target: T2, iASPP (1-240)-GST; experiment: in vitro translated iASPP(625-828)-V5 pulled down with iASPP(1-240)-GST glutathione beads
iASPP (1-240)-GST [4] = target: T2, iASPP (1-240)-GST; experiment: in vitro translated iASPP(625-828)-V5 mutant pulled down with iASPP(1-240)-GST glutathione beads

binding result (iASPP (1-240)-GST [4])	further results	Binder
	inhibition of p53 mediated transcription (PIG3 reporter, Saos-2 cells), against wild type iASPP [1]: ~3 fold	iASPP(S84D/S113D)-V5 (other, not shown: small tags and cut ends) MDSEAFQSARDFLDMNFQSLAMKHMDLKQMELDTAAAKVDELTKQLESLWSDSPAPPGPQAGPPSRPPRYSSSSIPEPFGSRGDPRKAATDGADTPFGRSESAPTLHPYSPLDPKGRPSSPRTPLYLQPDAYGSLDRATSPRPRAFDGAGSSLGRAPSPRPGPGPLRQQGPPTPFDFLGRAGSPRGSPLAEGPQAFFPERGPSPRPPATAYDAPASAFGSSLLGSGGSAFAPPLRAQDDLTLRRRPPKAWNESDLDVAYEKKPSQTASYERLDVFARPASPSLQLLPWRESSLDGLGGTGKDNLTSATLPRNYKVSPLASDRRSDAGSYRRSLGSAGPSGTLPRSWQPVSRIPMPPSSPQPRGAPRQRPIPLSMIFKLQNAFWEHGASRAMLPGSPLFTRAPPPKLQPQPQPQPQPQSQPQPQLPPQPQTQPQTPTPAPQHPQQTWPPVNEGPPKPPTELEPEPEIEGLLTPVLEAGDVDEGPVARPLSPTRLQPALPPEAQSVPELEEVARVLAEIPRPLKRRGSMEQAPAVALPPTHKKQYQQIISRLFHRHGGPGPGGPEPELSPITEGSEARAGPPAPAPPAPIPPPAPSQSSPPEQPQSMEMRSVLRKAGSPRKARRARLNPLVLLLDAALTGELEVVQQAVKEMNDPSQPNEEGITALHNAICGANYSIVDFLITAGANVNSPDSHGWTPLHCAASCNDTVICMALVQHGAAIFATTLSDGATAFEKCDPYREGYADCATYLADVEQSMGLMNSGAVYALWDYSAEFGDELSFREGESVTVLRRDGPEETDWWWAALHGQEGYVPRNYFGLFPRVKPQRSKV
	binding result (iASPP (249-482)-GST): no binding (tested: 10 µg/ml each)	B1
	binding result (iASPP (1-240)-GST [2]): no binding (tested: 10 µg/ml each)	ASPP2 (905-1128)-His (other, FITC-labelled in the nuclear import assay; also called C-terminus of ASPP2) RTNLRKTGSERIAHGMRVKFNPLALLLDSSLEGEFDLVQRIIYEVDDPSLPNDEGITALHNAVCAGHTEIVKFLVQFGVNVNAADSDGWTPLHCAASCNNVQVCKFLVESGAAVFAMTYSDMQTAADKCEEMEEGYTQCSQFLYGVQEKMGIMNKGVIYALWDYEPQNDDELPMKEGDCMTIIHREDEDEIEWWWARLNDKEGYVPRNLLGLYPRIKPRQRSLAHHHHHH
	binding result (iASPP (625-828)-His): no binding (tested: 10 µg/ml each)	iASPP (1-240) S84D/S113D (other, also called iASPP phosphor-mimic mutant; not shown: GST tag from pGEX vector) MDSEAFQSARDFLDMNFQSLAMKHMDLKQMELDTAAAKVDELTKQLESLWSDSPAPPGPQAGPPSRPPRYSSSSIPEPFGSRGDPRKAATDGADTPFGRSESAPTLHPYSPLDPKGRPSSPRTPLYLQPDAYGSLDRATSPRPRAFDGAGSSLGRAPSPRPGPGPLRQQGPPTPFDFLGRAGSPRGSPLAEGPQAFFPERGPSPRPPATAYDAPASAFGSSLLGSGGSAFAPPLRAQDDL
	binding result (iASPP (1-240)-GST [3]): binds	iASPP (625-828)-V5, wild type, in vitro translated (other, not shown: V5 tag) LNPLVLLLDAALTGELEVVQQAVKEMNDPSQPNEEGITALHNAICGANYSIVDFLITAGANVNSPDSHGWTPLHCAASCNDTVICMALVQHGAAIFATTLSDGATAFEKCDPYREGYADCATYLADVEQSMGLMNSGAVYALWDYSAEFGDELSFREGESVTVLRRDGPEETDWWWAALHGQEGYVPRNYFGLFPRVKPQRSKV
binds		iASPP(625-828)/T722A/Y814A (other, In vitro translated; not shown: V5 tag) LNPLVLLLDAALTGELEVVQQAVKEMNDPSQPNEEGITALHNAICGANYSIVDFLITAGANVNSPDSHGWTPLHCAASCNDTVICMALVQHGAAIFAATLSDGATAFEKCDPYREGYADCATYLADVEQSMGLMNSGAVYALWDYSAEFGDELSFREGESVTVLRRDGPEETDWWWAALHGQEGYVPRNAFGLFPRVKPQRSKV
binds		iASPP(625-828)/T722A (other, In vitro translated; not shown: V5 tag) LNPLVLLLDAALTGELEVVQQAVKEMNDPSQPNEEGITALHNAICGANYSIVDFLITAGANVNSPDSHGWTPLHCAASCNDTVICMALVQHGAAIFAATLSDGATAFEKCDPYREGYADCATYLADVEQSMGLMNSGAVYALWDYSAEFGDELSFREGESVTVLRRDGPEETDWWWAALHGQEGYVPRNYFGLFPRVKPQRSKV
binds		iASPP(625-828)/Y814A (other, In vitro translated; not shown: V5 tag) LNPLVLLLDAALTGELEVVQQAVKEMNDPSQPNEEGITALHNAICGANYSIVDFLITAGANVNSPDSHGWTPLHCAASCNDTVICMALVQHGAAIFATTLSDGATAFEKCDPYREGYADCATYLADVEQSMGLMNSGAVYALWDYSAEFGDELSFREGESVTVLRRDGPEETDWWWAALHGQEGYVPRNAFGLFPRVKPQRSKV
binds		iASPP(625-828)/T722A/N813A (other, In vitro translated; not shown: V5 tag) LNPLVLLLDAALTGELEVVQQAVKEMNDPSQPNEEGITALHNAICGANYSIVDFLITAGANVNSPDSHGWTPLHCAASCNDTVICMALVQHGAAIFAATLSDGATAFEKCDPYREGYADCATYLADVEQSMGLMNSGAVYALWDYSAEFGDELSFREGESVTVLRRDGPEETDWWWAALHGQEGYVPRAYFGLFPRVKPQRSKV
binds		iASPP(625-828)/N813A (other, In vitro translated; not shown: V5 tag) LNPLVLLLDAALTGELEVVQQAVKEMNDPSQPNEEGITALHNAICGANYSIVDFLITAGANVNSPDSHGWTPLHCAASCNDTVICMALVQHGAAIFATTLSDGATAFEKCDPYREGYADCATYLADVEQSMGLMNSGAVYALWDYSAEFGDELSFREGESVTVLRRDGPEETDWWWAALHGQEGYVPRAYFGLFPRVKPQRSKV
binds		iASPP(625-828)/L724A (other, In vitro translated; not shown: V5 tag) LNPLVLLLDAALTGELEVVQQAVKEMNDPSQPNEEGITALHNAICGANYSIVDFLITAGANVNSPDSHGWTPLHCAASCNDTVICMALVQHGAAIFATTASDGATAFEKCDPYREGYADCATYLADVEQSMGLMNSGAVYALWDYSAEFGDELSFREGESVTVLRRDGPEETDWWWAALHGQEGYVPRNYFGLFPRVKPQRSKV

— patent publication US20150285810A1 (LUDWIG INSTITUTE FOR CANCER RESEARCH, published 2015)
